In doi:10.1101/2024.02.24.581832:

Molecular target: N-terminal domain of MtbClpC1 (residues 1-145) (Mycobacterium tuberculosis) (UniProt P9WPC9)
Test: differential scanning fluorimetry

Chain of UniProt P9WPC9 (P9WPC9 1-145): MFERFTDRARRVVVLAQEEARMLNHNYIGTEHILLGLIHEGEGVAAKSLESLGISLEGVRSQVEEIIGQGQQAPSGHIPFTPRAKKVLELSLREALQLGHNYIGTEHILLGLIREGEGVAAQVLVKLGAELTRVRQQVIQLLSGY

Row | Substance | ΔTm [°C]
1 | ilamycin E (peptide) | 3
2 | ilamycin F (peptide) | 1
